Substrate in series [1]: N[C@@H](CSSC[C@H](N)C(=O)O)C(=O)O
Put plainly: cells, lysate or membranes. The settings on record: cellular transport (Vmax given per cell).

Substrate in series [2]: N[C@@H](CSSC[C@H](N)C(=O)O)C(=O)O
The experiment in a line: cells, lysate or membranes. Type of series: cell-based, Homo sapiens. Particulars: cellular transport (Vmax given per cell).

Series [3] concerns the molecule itself. Put plainly: cryo-EM structure; apo state; SLC7A13 and SLC3A1 co-expressed in Expi293 cells, complex purified by affinity purification and SEC; overall resolution 2.64 Å.

The results in this text go back to PMC12959773 (Protein & Cell, 2025).

B1: SLC7A11-SLC3A2 complex (Homo sapiens) (protein)
chain: MVRKPVVSTISKGGYLQGNVNGRLPSLGNKEPPGQEKVQLKRKVTLLRGVSIIIGTIIGAGIFISPKGVLQNTGSVGMSLTIWTVCGVLSLFGALSYAELGTTIKKSGGHYTYILEVFGPLPAFVRVWVELLIIRPAATAVISLAFGRYILEPFFIQCEIPELAIKLITAVGITVVMVLNSMSVSWSARIQIFLTFCKLTAILIIIVPGVMQLIKGQTQNFKDAFSGRDSSITRLPLAFYYGMYAYAGWFYLNFVTEEVENPEKTIPLAICISMAIVTIGYVLTNVAYFTTINAEELLLSNAVAVTFSERLLGNFSLAVPIFVALSCFGSMNGGVFAVSRLFYVASREGHLPEILSMIHVRKHTPLPAVIVLHPLTMIMLFSGDLDSLLNFLSFARWLFIGLAVAGLIYLRYKCPDMHRPFKVPLFIPALFSFTCLFMVALSLYSDPFSTGIGFVITLTGVPAYYLFIIWDKKPRWFRIMSEKITRTLQIILEVVPEEDKL
For B1, the Km in series [1] came out at 67.57 ± 21.95 µM.

B2: SLC7A9-SLC3A1 complex (Homo sapiens) (protein)
chain: MGDTGLRKRREDEKSIQSQEPKTTSLQKELGLISGISIIVGTIIGSGIFVSPKSVLSNTEAVGPCLIIWAACGVLATLGALCFAELGTMITKSGGEYPYLMEAYGPIPAYLFSWASLIVIKPTSFAIICLSFSEYVCAPFYVGCKPPQIVVKCLAAAAILFISTVNSLSVRLGSYVQNIFTAAKLVIVAIIIISGLVLLAQGNTKNFDNSFEGAQLSVGAISLAFYNGLWAYDGWNQLNYITEELRNPYRNLPLAIIIGIPLVTACYILMNVSYFTVMTATELLQSQAVAVTFGDRVLYPASWIVPLFVAFSTIGAANGTCFTAGRLIYVAGREGHMLKVLSYISVRRLTPAPAIIFYGIIATIYIIPGDINSLVNYFSFAAWLFYGLTILGLIVMRFTRKELERPIKVPVVIPVLMTLISVFLVLAPIISKPTWEYLYCVLFILSGLLFYFLFVHYKFGWAQKISKPITMHLQMLMEVVPPEEDPE
In the case of B2, in series [1], the Michaelis constant (Km) was found to be 276.9 ± 107.6 µM.

B3: SLC7A13-SLC3A1 complex (Homo sapiens) (protein)
chain: MDRGEKIQLKRVFGYWWGTSFLLINIIGAGIFVSPKGVLAYSCMNVGVSLCVWAGCAILAMTSTLCSAEISISFPCSGAQYYFLKRYFGSTVAFLNLWTSLFLGSGVVAGQALLLAEYSIQPFFPSCSVPKLPKKCLALAMLWIVGILTSRGVKEVTWLQIASSVLKVSILSFISLTGVVFLIRGKKENVERFQNAFDAELPDISHLIQAIFQGYFAYSGGACFTLIAGELKKPRTTIPKCIFTALPLVTVVYLLVNISYLTVLTPREILSSDAVAITWADRAFPSLAWIMPFAISTSLFSNLLISIFKSSRPIYLASQEGQLPLLFNTLNSHSSPFTAVLLLVTLGSLAIILTSLIDLINYIFFTGSLWSILLMIGILRRRYQEPNLSIPYKVFLSFPLATIVIDVGLVVIPLVKSPNVHYVYVLLLVLSGLLFYIPLIHFKIRLAWFEKMTCYLQLLFNICLPDVSEE
notes: heterodimeric light/heavy chain transporter, dimer of heterodimers; ectopically expressed in HEK293T / HEK293 cells (Expi293 for cryo-EM); with Amino acid transporter heavy chain SLC3A1
On to B3, for which, in series [2], the Km turned out to be 126.5 ± 33.25 µM.

B4: SLC3A1 (natural protein, human)
chain: AEDKSKRDSIEMSMKGCQTNNGFVHNEDILEQTPDPGSSTDNLKHSTRGILGSQEPDFKGVQPYAGMPKEVLFQFSGQARYRIPREILFWLTVASVLVLIAATIAIIALSPKCLDWWQEGPMYQIYPRSFKDSNKDGNGDLKGIQDKLDYITALNIKTVWITSFYKSSLKDFRYGVEDFREVDPIFGTMEDFENLVAAIHDKGLKLIIDFIPNHTSDKHIWFQLSRTRTGKYTDYYIWHDCTHENGKTIPPNNWLSVYGNSSWHFDEVRNQCYFHQFMKEQPDLNFRNPDVQEEIKEILRFWLTKGVDGFSLDAVKFLLEAKHLRDEIQVNKTQIPDTVTQYSELYHDFTTTQVGMHDIVRSFRQTMDQYSTEPGRYRFMGTEAYAESIDRTVMYYGLPFIQEADFPFNNYLSMLDTVSGNSVYEVITSWMENMPEGKWPNWMIGGPDSSRLTSRLGNQYVNVMNMLLFTLPGTPITYYGEEIGMGNIVAANLNESYDINTLRSKSPMQWDNSSNAGFSEASNTWLPTNSDYHTVNVDVQKTQPRSALKLYQDLSLLHANELLLNRGWFCHLRNDSHYVVYTRELDGIDRIFIVVLNFGESTLLNLHNMISGLPAKMRIRLSTNSADKGSKVDTSGIFLDKGEGLIFEHNTKNLLHRQTAFRDRCFVSNRACYSSVLNILYTSC
modifications: five glycosylation sites in the extracellular domain
notes: SLC3A1 (rBAT), human; heavy chain subunit: small N-terminal cytoplasmic region, a single TM and a large extracellular domain; Two copies stand in the solved hetero-tetramer; also called rBAT; heavy chain of the SLC7A13-SLC3A1 cystine transporter
For the protein B4, in series [3], the “stoichiometry N” value came out at 2.
